The target in this experiment is canine IL-31 (canine).

The results in this text go back to patent US20250388683A1.

“Cytopoint® (Lokivetmab), a canine anti-IL31 (Cas number: 1533403-95-0) (antibody)” registered an IC50 (read off the curve); STAT3-SEAP reporter, canine IL-31 stimulation of 1 to 10 nM. As for “Tirnovetmab, a canine anti-IL31 (Cas number: 2364504-80-1) (antibody)”, the IC50 (read off the curve); STAT3-SEAP reporter, canine IL-31 stimulation amounted to 3 nM.
